Test results as given in the supplement of paper PMC9170038.

Key:
[1] = tested on: K4 kissing-loop RNA reporter; assay: apparent KD of K4 kissing-loop reporter; higher = weaker reporter binding; settings: Eterna round: R107;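 note: bound reporter read as fluorescence of individual clusters on recovered sequencing chips by microscopy, with normalized cluster intensities fitted with a binding model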
Description: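 RNA-MaP round R107: designed RNA switches with theophylline, tryptophan, arginine or FMN aptamers are transcribed on-chip within common flanks. They are titrated with a labelled K4 kissing-loop RNA reporter in RNA-MaP buffer (100 mM Tris pH 7.5, 80 mM KCl, 4 mM MgCl2), without ligand or with the indicated ligand. Median apparent KD per design.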

MS2 coat protein = assay: apparent KD of MS2 coat protein; designed switch direction (-1 OFF switch, 1 ON switch): -1; higher = weaker reporter binding
Method in brief: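 Each step of the titration lasted 0.8–1.5 h at the lowest concentration and 10–20 min at the highest. The protein, SNAP-549-labelled MS2 coat protein, went from 0.7 or 1.5 nM doubling to 3 µM over RNA switches transcribed on Illumina chips by stalled E. coli RNA polymerase. Normalised cluster fluorescence was curve-fitted, and the per-design median over clusters is given as apparent KD.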

[2] = input ligand: theophylline 20 uM
[3] = input ligand: tryptophan 2.4 mM
[4] = input ligand: microRNA oligo, concentration not stated

| Sequence | apparent KD of K4 kissing-loop reporter ([1]; input ligand: FMN 200 uM) [nM] | apparent KD of K4 kissing-loop reporter ([1]; input ligand: arginine 13.2 mM) [nM] | apparent KD of K4 kissing-loop reporter ([1]; input ligand: none) [nM] | apparent KD of K4 kissing-loop reporter [1, 2] [nM] | apparent KD of K4 kissing-loop reporter [1, 3] [nM] | apparent KD of MS2 coat protein (MS2 coat protein; input ligand: FMN 200 uM) [nM] | apparent KD of MS2 coat protein (MS2 coat protein; [4]) [nM] | apparent KD of MS2 coat protein (MS2 coat protein; input ligand: none) [nM] | apparent KD of MS2 coat protein (MS2 coat protein; Eterna round: R95, input ligand: microRNA oligo, concentration not stated) [nM] |
| --- | --- | --- | --- | --- | --- | --- | --- | --- | --- |
| AAAACUAUCAGAAGGAGCGUGGAAUAUACAUCUAUAUUUAAUACGAGUGAUGUUCGUAAUUCACAGGUAGGUCGCUGAUCAAUAA [whbob_Ex_Arginine_B_2th153] | 228 | 320 | 278 | 359 | 206 | – | – | – | – |
| AAAACUAUCAGAAGGAGCGUGGAAUAUUCAUCUGUAUCUAAUACGAGUGAUGUUCGUAAUUCACAGGUAGGUCGCUGAUCAAUAA [whbob_Ex_Arginine_B_2th155] | 255 | 226 | 241 | 250 | 241 | – | – | – | – |
| AAAAUAAAAGCAGUCAUCGGAGUGAUGUUCCGAGGACCGGUACGGCCGCCACUCGACCAGACAAAGUCUGGAUGGCGAGACUGCA [#SwitchBubble 18 #K4Early] | 83.6 | 85.1 | 102 | 91.4 | 85.6 | – | – | – | – |
| AAAAUAAACCAGUGAUGUUGGUGUCCAGAUACCAGCGACGAAAGUCGCCCUUGGCAGCUGUGGACGUACAAAAUAAGUACGUCCU | 332 | 229 | 356 | 209 | 290 | – | – | – | – |
| AAAAUAAAUCAGUGAUGUUGGUAUCUGGAUACCAGCGAUAAUAAUCGCCCUUGGCAGCCAUGGACGUACAAAAUAAGUACGUCCU [MatMod 18 - Jieux - Same State - Theophylline A] | 285 | 154 | 226 | 337 | 200 | – | – | – | – |
| AAAAUUAAGGCCGAAUAAACUUAUUUCAUACGAGGACCGGUACGGCCGCCACUCGAGUCAAGUGAUGUUUGACUAUCUAUUAUUA [JR_ExcTryptoA_Sub009] | 61.4 | 87.1 | 68.7 | 83 | 54 | – | – | – | – |
| AAACAUCACUGGGAGUGAUGUUCUCAGUGACGAGGACCGGUACGGCCGCCACUCGCGAGAGAUAUAGAUGAGUAAUGACAUCAUU [Excl Tryptophan A V3] | 277 | 232 | 286 | 274 | 304 | – | – | – | – |
| AAACAUCACUGGGAGUGAUGUUCUCAGUGACGAGGACCGGUACGGCCGCCACUCGCGAGAGAUUUAGUCUAGUAUUGACUGCAUU [Excl Tryptophan A V11] | 294 | 273 | 304 | 353 | 358 | – | – | – | – |
| AAACGUUGGUGCGAUACCAGCUUGCGCGGAAAACGCGCUACUGGAGUGAUGUUCCUAAAUAGCCCUUGGCAGCGCACCGACGAAA [MAT - Same State Theophlline B - Mod of Eli - D9] | 193 | 146 | 155 | 107 | 170 | – | – | – | – |
| AAAGCAUUGAGAAGGAGCGUGUCGUGGAGUGAUGUUCCAUUGUAGACCUAAGGUCUACAAGCACAGGUAGGUCGCUCAUUGCUAA [JR_Nu_SSArginiB_Sub023] | 169 | 148 | 173 | 138 | 156 | – | – | – | – |
| AAAGGAUCAGAGAGUGAUGUUCUCUAAUAACGAGGACCGGUACGGCCGCCACUCGAAGAUCCAAAAGUCCUACGAAAAGUAGGAC [Omei inspired 7] | 92.9 | 69.3 | 83.7 | 251 | 263 | – | – | – | – |
| AAAUAGAUCAGUCACCCAGUGAUGUUGGAAGGAGCGUGCGAAAGCACAGGUAGGUCGCCGAAAUAAAAUUGGCUGAUCAAAAUAA | 151 | 221 | 116 | 308 | 104 | – | – | – | – |
| AAAUAGCAGCAACGAGUGAUGUUCGACGAUACCAGCCUCGAUAGAGGCCCUUGGCAGCGUAAAUGAUCACAAAGCCAAGGGCUGC [#SwitchBubble 2] | 382 | 372 | 458 | 453 | 397 | – | – | – | – |
| AAAUAUUCGAGUGAUGUUCGAAUAAUAUCAGAGGAUAUGCAUAAAAGCAGAAGGCUGUAUUACUUUUUGUUACGAAAUUUUAUAA [JR_SSFMNA_Sub020] | 111 | 115 | 102 | 118 | 115 | – | – | – | – |
| AAAUGUUUGUAUUUGAACAAUUUCCUUAGAGAGGAUAUUGGUAAUACAAGAAGGCUCUGAUGGGAGUGAUGUUCCCAUAACGCGG [Exclusion FMN A GF14] | 110 | 114 | 119 | 126 | 91 | – | – | – | – |
| AAAUUUAAUAUAUUUAAUUAAUUAUGUGAUACCAGACAUUAAUAAGUCCCUUGGCAGCACAAUGCAGUGAUGUUGCAUAUAAUAA [JR_SSTheophyA_Sub011] | 69.4 | 115 | 73.5 | 84.8 | 65.4 | – | – | – | – |
| AAAUUUAUAUUAGAUACCAGCAUAUUGAAAGUUUAUUAUGACAAGAGUGAUGUUCUUGUAUGCCCUUGGCAGCUGGUAUGGGUUU [KL-XTheo-B25] | 114 | 107 | 104 | 110 | 110 | – | – | – | – |
| AACAAGGGAUGUCAGUGAUGUUGUACGUCGCGAGGACCGGUACGGCCGCCACUCGUAAUACACAGAUGAGGGUUCUUUCUCUGAU [theeternabot_sameState_KL_Trp_A_49] | 305 | 179 | 268 | 265 | 228 | – | – | – | – |
| AACCACUCGUUACAUCACUAUCGAGUGGAACGAGGACCGGUACGGCCGCCACUCGAUAAGAUGCAGUGAUGUUGCAUCUAAGAAU [KL-SSTryp-A (BrourdMod)5 #dotplot2 strengthened] | 208 | 168 | 183 | 192 | 141 | – | – | – | – |

| Sequence | apparent KD of K4 kissing-loop reporter ([1]; input ligand: FMN 200 uM) [nM] | apparent KD of K4 kissing-loop reporter ([1]; input ligand: arginine 13.2 mM) [nM] | apparent KD of K4 kissing-loop reporter ([1]; input ligand: none) [nM] | apparent KD of K4 kissing-loop reporter [1, 2] [nM] | apparent KD of K4 kissing-loop reporter [1, 3] [nM] | apparent KD of MS2 coat protein (MS2 coat protein; input ligand: FMN 200 uM) [nM] | apparent KD of MS2 coat protein (MS2 coat protein; [4]) [nM] | apparent KD of MS2 coat protein (MS2 coat protein; input ligand: none) [nM] | apparent KD of MS2 coat protein (MS2 coat protein; Eterna round: R95, input ligand: microRNA oligo, concentration not stated) [nM] |
| --- | --- | --- | --- | --- | --- | --- | --- | --- | --- |
| AACGACUGGAUGAAUAACAUCUAGUCGAUUCGAGGACCGGUACGGCCGCCACUCGAGCUAACUGCGAGUGAUGUUCGAUAAUAAA [#OpenEnded 3] | 347 | 433 | 390 | 524 | 96.6 | – | – | – | – |
| AACGCUUGAAUAACAAGCGAAAUAAAUUCGCGAGGACCGGUACGGCCGCCACUCGCUAACUGCGAGUGAUGUUCGAUAAUAAAAU [Mat - Mod of OpenEnded 3 - D15] | 103 | 66.1 | 136 | 234 | 71 | – | – | – | – |
| AACUCUCAGGCAGCCGAGUGAUGUUCGGCCCGAGGACCGGUACGGCCGCCACUCGGGCCUGAGAGAGGUUAUCAAAGAUAGCCAA [#01 K4 Tryptophan A Same State] | 194 | 75.2 | 89.8 | 142 | 131 | – | – | – | – |
| AACUGUCAAGGACAACAUUACUGAGGUGAUACCAGCAUCGAAAGAUGCCCUUGGCAGCACCGACUUGCAGUGAUGUUGCAAGUAA [BrourdMod 11 - Jieux - Exclusion - Theophylline A] | 271 | 219 | 249 | 322 | 247 | – | – | – | – |
| AAGAAUGCAGGAAGGAGCGGCGGACGGAGUGAUGUUCCGGCUAGUGAUGUUAGCAAACACCGCCAGGUAGGUCGCCUGCUGCCCU [Same State Arginine B GF 6] | 207 | 127 | 171 | 153 | 151 | – | – | – | – |
| AAGCAGUCACUCGUAACCAUCGAAGAUGGUCGAGGACCGGUACGGCCGCCACUCGGAGUGAUGUUCCGAAGACUGCAAAAUAAAA [#SwitchBubble 12] | 237 | 238 | 299 | 292 | 607 | – | – | – | – |
| AAGCAGUCGCUCGAAGCCAUCGAAGAUGGGCGAGGACCGGUACGGCCGCCACUCGGAGUGAUGUUCCGAGGACUGCAAAAUAAAA [MatMod 5 - Jieux - Exclusion - Tryptophan A] | 418 | 246 | 321 | 263 | 409 | – | – | – | – |
| AAGCAGUCUCUUGUAGUCAUCGAAGAUGAACGAGGACCGGUACGGCCGCCACUCGGAGUGAUGUUCCGAAGGCUGCAAAAUAAAA [MatMod 18 - Jieux - Exclusion - Tryptophan A] | 300 | 297 | 309 | 404 | 324 | – | – | – | – |
| AAGGCCACGAGAAGGAGCGUGCUGUGGAGUGAUGUUCCAUUGUAGACCUAAGGUCUACGAGCACAGGUAGGUCGCUCGUGGUCAA [Omei KL Arginine B SS A v4] | 113 | 97.4 | 95.3 | 102 | 99.6 | – | – | – | – |
| AAGGUCACUACUACAGUGAUGUUGUGGGAGCAGGAUAUGCAGAAAUGCAGAAGGGCUCGCUCCAGGUGACCGAAUGAAACAUUCA [whbob_SS_FMNA__2th174] | 1500 | 882 | 1780 | 1140 | 1140 | – | – | – | – |
| AAGUGAUGUUGUAGUGAUGUUGUGAUGUUGCAGGAUAUAUAGUGAUGUAGAAGGGUAUGUACAGAUUUUUUUUUUGAGUGAUGUU [ffdcmullin] | 112 | 45.5 | 73.8 | 59 | 81.4 | – | – | – | – |
| AAGUGUCAUUAGACACACGCAUCUAUAAACUAGGAUAUGCUGAUAAGCAGAAGGAGUGAUGUUCCUUUCAUGAUGCGAAUUAAAU [#07 K4 FMN A Exclusion] | 224 | 123 | 113 | 135 | 111 | – | – | – | – |
| AAGUGUGUGGCGGCCGCCACUAGAAUCCAGUGAUGUUGGAGAUAUCACGUAAGUGAUAUCCAUCAUAGGACCGGGCCAUAUAGAA [Same State - Tryptophan B (Freestyle 18)] | 675 | 389 | 945 | 1280 | 755 | – | – | – | – |
| UUUUUAUAUGAAGGAUAUACUUAACAUGAGGAUCACCCAUGUGGUGUUGUGAGUGAGUGAGUUUAGUAGAAGGUCAACGAUUUU [JMF's solution 58] (Eterna round: R96, puzzle: Exclusion NG 2) | – | – | – | – | – | 810 | 322 | 421 | – |
| UUUUUAUAUGAAGGAUAUACUUAACAUGAGGAUCACCCAUGUGGUGUUGUGAGUGAGUGAGUUUAGUAGAAGGUCAAGGAUUUU [JMF's solution 35] (Eterna round: R96, puzzle: Exclusion NG 2) | – | – | – | – | – | 598 | 456 | 161 | – |
| UUUUUAUAUGAAGGAUAUACUUAACAUGAGGAUCACCCAUGUGGUGUUGUGAGUGAGUGAGUUUAGUAGAAGGUCAAUGAUUUG [JMF's solution 63] (Eterna round: R96, puzzle: Exclusion NG 2) | – | – | – | – | – | 894 | 237 | 563 | – |
| UUUUUAUAUGAAGGAUAUACUUAACAUGAGGAUCACCCAUGUGGUGUUGUGAGUGAGUGAGUUUAGUAGAAGGUCAAUUAUUAU [JMF's solution 15] (Eterna round: R96, puzzle: Exclusion NG 2) | – | – | – | – | – | 719 | 390 | 271 | – |
| UUUUUGUCAGGAUAUGAGUAGUAGAACAAUAGUACUACUACUCAGAAGGGACAUGAGGAUCACCCAUGUUCCUC [Fiskers Ex 4 Super stable 44 mod 18] (puzzle: Exclusion 4) | – | – | – | – | – | – | – | – | 14.4 |
